Measurements taken from PMC4132694 (Cellular signalling, 2013).

B1: full-length wild-type (WT) SMTNL2 (Smoothelin-like 2), [35S]-labeled (natural protein, human, UniProt Q2TAL5-1 1-461, looked up)
chain: MEPAPDAQEARTVREALGRYEAALEGAVRALHEDMRGLQRGVERRVAEAMRLAGPLARTVADLQRDNQRLQAQLERLTRQVEALGLASGMSPVPGTPGTPSPPPAPGVPDRAPRLGSARFASHATFSLSGRGQSLDHDEASESEMRKTSNSCIMENGHQPGAGPGDGPPEIAQNFSAPDPPRPRPVSLSLRLPHQPVTAITRVSDRFSGETSAAALSPMSAATLGGLNPSPSEVITPWTPSPSEKNSSFTWSVPSSGYGAVTASKHSNSPPLVTPPQSPVSPQPPAITQVHRQGERRRELVRSQTLPRTSEAQARKALFEKWEQETAAGKGKGEARARLKRSQSFGVASASSIKQILLEWCRSKTLGYQHVDLQNFSSSWSDGMAFCALVHSFFPDAFDYNSLSPTQRQKNFELAFTMAENLANCERLIEVEDMMVMGRKPDPMCVFTYVQSLYNHLRRFE
modifications: [35S]-methionine label
B2: GST-JNK3 (human JNK3α1) (enzyme, UniProt P53779-2 1-422, looked up)
chain: MSLHFLYYCSEPTLDVKIAFCQGFDKQVDVSYIAKHYNMSKSKVDNQFYSVEVGDSTFTVLKRYQNLKPIGSGAQGIVCAAYDAVLDRNVAIKKLSRPFQNQTHAKRAYRELVLMKCVNHKNIISLLNVFTPQKTLEEFQDVYLVMELMDANLCQVIQMELDHERMSYLLYQMLCGIKHLHSAGIIHRDLKPSNIVVKSDCTLKILDFGLARTAGTSFMMTPYVVTRYYRAPEVILGMGYKENVDIWSVGCIMGEMVRHKILFPGRDYIDQWNKVIEQLGTPCPEFMKKLQPTVRNYVENRPKYAGLTFPKLFPDSLFPADSEHNKLKASQARDLLSKMLVIDPAKRISVDDALQHPYINVWYDPAEVEAPPPQIYDKQLDEREHTIEEWKELIYKEVMNSEEKTKNGVVKGQPSPSAQVQQ
B3: GST-JNK1 (human JNK1α1) (enzyme, UniProt P45983-2 1-384, looked up)
chain: MSRSKRDNNFYSVEIGDSTFTVLKRYQNLKPIGSGAQGIVCAAYDAILERNVAIKKLSRPFQNQTHAKRAYRELVLMKCVNHKNIIGLLNVFTPQKSLEEFQDVYIVMELMDANLCQVIQMELDHERMSYLLYQMLCGIKHLHSAGIIHRDLKPSNIVVKSDCTLKILDFGLARTAGTSFMMTPYVVTRYYRAPEVILGMGYKENVDLWSVGCIMGEMVCHKILFPGRDYIDQWNKVIEQLGTPCPEFMKKLQPTVRTYVENRPKYAGYSFEKLFPDVLFPADSEHNKLKASQARDLLSKMLVIDASKRISVDEALQHPYINVWYDPSEAEAPPPKIPDKQLDEREHTIEEWKELIYKEVMDLEERTKNGVIRGQPSPLAQVQQ

Legend:
Test in all cases: pull-down
[1] = target: B3
[2] = target: GST-JNK2 (human JNK2α2) (human, UniProt P45984-1 1-424)
[3] = target: B2
[4] = target: B1

Row | percent of input bound [1] | percent of input bound [2] | percent of input bound [3] | Kd [4] | Binder
1 | 8 % of input | 65 % of input | 50 % of input | – | B1
2 | – | – | – | ~4 µM | B2
3 | – | – | – | ~50 µM | B3
